These results are taken from patent publication US20250215109A1.

The target of this assay is HER2 on human tumor cells (human) (UniProt P04626). The experiment in a line: Her2 receptor occupancy on SK-BR-3 cells, FACS, competitor biotin-labeled parental anti-HER2 antibody.

With Magrolimab (antibody), the Max RO % was found to be 0%.
